Experimental data published in patent publication US20220275098A1.

Target: CD30 (analyte in SPR) (UniProt P28908)
Assay: SPR, 25° C. pH 7.4, scFv captured on chip, CD30 as analyte, average value

CD30 (analyte in SPR), sequence (P28908 19-379 limits assumed): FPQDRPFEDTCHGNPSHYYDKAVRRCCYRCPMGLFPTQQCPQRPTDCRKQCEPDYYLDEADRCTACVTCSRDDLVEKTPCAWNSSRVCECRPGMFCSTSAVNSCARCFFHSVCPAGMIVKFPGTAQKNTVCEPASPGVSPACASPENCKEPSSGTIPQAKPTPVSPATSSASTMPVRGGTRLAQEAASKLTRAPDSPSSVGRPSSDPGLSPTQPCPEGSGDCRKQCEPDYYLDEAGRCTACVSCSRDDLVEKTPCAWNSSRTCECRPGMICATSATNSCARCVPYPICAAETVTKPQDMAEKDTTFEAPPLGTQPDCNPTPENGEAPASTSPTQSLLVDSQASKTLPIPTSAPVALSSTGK

Kd: 0.8 nM
B1: anti-CD30 clone 52-2 scFv (scFv, part only; not given: Linker, domain order, tag, V domains shown, not shown: another chain or arm of the molecule; small tags and cut ends)
VH: EVQLVESGGGLVQPGGSLRLSCAASGFTFSSYYMHWVRQAPGKGLEWVSAISWSGGSTYYADSVKGRFTISRDNSKNTLYLQMNSLRAEDTAVYYCARDRFMPFIPNTLGFDVWGQGTLVTVSS
VL: DIQMTQSPSSLSASVGDRVTITCQASQDISNYLNWYQQKPGKAPKLLIYVASNLETGVPSRFSGSGSGTDFTFTISSLQPEDIATYYCQQDADVPLTFGQGTKVEIK
